Assay results taken from US20190359666A1 (ACADEMIA SINICA, published 2019).
Blank lines part the entries; values can stand above or below the binder they belong to.

How the values were obtained:
IGF-1 [1] = biological target: T1, IGF-1 (UniProt P05019 49-118); assay: Biacore SPR; experiment 4-79
T1 construct: Biotinylated IGF-1 is written as the same molecule; also called biotinylated IGF-1; IGF-1-bio
Experimental: (§1) Biacore binding was performed at David Myszka's laboratory at the University of Utah or at the Genomic Research Center at Academia Sinica. Surfaces of binding protein chimera were made via chemical immobilization on a CM4 chip using standard amine coupling chemistry. […] Excess surface carboxyl activated sites on all four flow cells was blocked using the doubly positively charged species ethylenediamine. Binding experiments (but not immobilizations) in HBS-P (10 mM HEPES pH 7.4, 150 mM NaCl, 0.05% P20), The HBS-P was supplemented with BSA at 0.2 mg/mL, or HBS-P was supplemented with 500 mM NaCl (650 mM NaCl, final concentration). Analytes were also reconstituted in the corresponding buffer. All experiments were performed at 25° C. 1/150 dilutions of phosphoric acid were used to regenerate IGFBP3-Fc surfaces and a sequence of 3 M MgCl₂ followed by 5 M GuCl was used to regenerate surfaces immobilized with growth factor. Dissociation constants reported below used immobilized binding protein unless noted. Differences between binding constants may be expected between growth factor immobilization and chimera immobilization.

IGF-1 [2] = biological target: T1, IGF-1; assay: Biacore SPR, chimera immobilised
Experimental: as §1
(§2) We selected his3t33Fc and chimera A for further analysis and examined their growth factor binding by Biacore and ELISA competition assays.

IGF-2 = IGF-2 (UniProt P01344 25-91); assay: Biacore SPR, chimera immobilised
Experimental: as §1, §2

nrgbx [3] = biological target: T2, nrgbx (UniProt Q02297-6 2-246, limits assumed); assay: Biacore SPR, chimera immobilised
T2 construct: also called neuregulin
T2 sequence (looked up): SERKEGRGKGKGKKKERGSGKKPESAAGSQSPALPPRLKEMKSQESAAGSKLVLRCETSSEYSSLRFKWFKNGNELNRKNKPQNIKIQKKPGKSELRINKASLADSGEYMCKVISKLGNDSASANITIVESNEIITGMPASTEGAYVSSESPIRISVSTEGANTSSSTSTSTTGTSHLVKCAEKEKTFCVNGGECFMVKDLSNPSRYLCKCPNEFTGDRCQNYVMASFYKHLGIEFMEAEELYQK
Experimental: as §1, §2

VEGF-B = biological target: T3, VEGF-B (UniProt P49765-2 22-188); assay: Biacore SPR, chimera immobilised
T3 sequence (looked up): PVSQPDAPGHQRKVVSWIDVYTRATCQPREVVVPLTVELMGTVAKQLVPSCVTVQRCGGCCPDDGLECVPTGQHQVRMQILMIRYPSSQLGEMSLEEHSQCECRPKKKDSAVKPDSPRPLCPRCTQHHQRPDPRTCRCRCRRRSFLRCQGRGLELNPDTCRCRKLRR
Experimental: as §1, §2

VEGF [4] = biological target: T4, VEGF (UniProt P15692-4 27-191); assay: Biacore SPR, chimera immobilised
Experimental: as §1, §2

TGF-α = TGF-α (UniProt P01135 40-89); assay: Biacore SPR, chimera immobilised
Experimental: as §1, §2

mIGF-1 = mIGF-1 (UniProt P05017 49-118); assay: Biacore SPR, chimera immobilised
Experimental: as §1, §2

mIGF-2 = mIGF-2 (UniProt P09535 25-91); assay: Biacore SPR, chimera immobilised
Experimental: as §1, §2

HGF = biological target: T5, HGF (UniProt P14210 32-728); assay: Biacore SPR, growth factor immobilised
T5 construct: also called hepatocyte growth factor
Experimental: as §1, §2

bFGF [5] = biological target: T6, bFGF (UniProt P09038 143-288, limits assumed); assay: Biacore SPR, immobilised bFGF; experiment 4-79
T6 construct: also called basic fibroblast growth factor
Experimental: as §1

bFGF [6] = biological target: T6, bFGF; assay: Biacore SPR, growth factor immobilised; growth factor immobilised
IGF-1 [7] = biological target: T1, IGF-1; assay: biotinylated IGF-1 ELISA on Fc-captured chimera, 4 C PBS control (the reference); experiment 4-81
Experimental: (§3) Plates were coated with goat anti-human Fc antibody, blocked and then incubated with chimera as in the Fc ELISA. Biotinylated IGF-1 (GroPep) or VEGF-Biotin (R&D Systems VEGF biotinylated with sulfo-NHS-LC-biotin as per instructions (Pierce) was added for 2 hours followed by streptavidin-HRP (Jackson Immunoresearch) for 30 minutes. Chromogenic development with tetramethyl benzidine was performed as described above.
(§4) To test the stability of the present chimeras, some purified chimeras (see, Table 4) were incubated with PBS or a conditioned medium from the MCF-7 cell line overnight at 37° C. and PBS overnight at 4° C. The IGF-1 binding and VEGF binding were measured using the biotinylated IGF-1 and VEGF.

IGF-1 [8] = biological target: T1, IGF-1; assay: biotinylated IGF-1 ELISA on Fc-captured chimera, 4 C PBS control (the reference); experiment 3-192
Experimental: as §3, §4

IGF-1 [9] = biological target: T1, IGF-1; assay: biotinylated IGF-1 ELISA on Fc-captured chimera, after overnight in PBS at 37 C, against the 4 C PBS control; experiment 4-81
Experimental: as §3, §4

IGF-1 [10] = biological target: T1, IGF-1; assay: biotinylated IGF-1 ELISA on Fc-captured chimera, after overnight in PBS at 37 C, against the 4 C PBS control; experiment 3-192
Experimental: as §3, §4

IGF-1 [11] = biological target: T1, IGF-1; assay: biotinylated IGF-1 ELISA on Fc-captured chimera, after overnight in MCF-7 conditioned medium at 37 C, against the 4 C PBS control; experiment 4-81
Experimental: as §3, §4

IGF-1 [12] = biological target: T1, IGF-1; assay: biotinylated IGF-1 ELISA on Fc-captured chimera, after overnight in MCF-7 conditioned medium at 37 C, against the 4 C PBS control; experiment 3-192
Experimental: as §3, §4

nrgbx [13] = biological target: T2, nrgbx; assay: cell-based or functional assay
IGF-1 [14] = biological target: T1, IGF-1; assay: SPR, without VEGF; absence of VEGF
Experimental: as §1
(§5) To further examine the nature of the VEGF and IGF binding to chimera A, simultaneous binding was examined using the surface plasmon resonance.

PIGF = biological target: T7, PIGF (UniProt P49763-2 21-149); assay: Biacore SPR, chimera immobilised
T7 construct: also called placental growth factor
T7 sequence (looked up): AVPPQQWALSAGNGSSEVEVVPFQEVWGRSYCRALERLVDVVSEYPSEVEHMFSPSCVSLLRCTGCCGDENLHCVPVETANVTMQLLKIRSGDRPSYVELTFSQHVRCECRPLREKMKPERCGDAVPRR
Experimental: as §1, §2

bFGF [15] = biological target: T6, bFGF; assay: Biacore SPR, growth factor immobilised
Experimental: as §1, §2

IGF-1 [16] = biological target: T1, IGF-1; assay: SPR, in the presence of 3 nM VEGF; presence of 3 nM VEGF
Experimental: as §1, §5

VEGF [17] = biological target: T4, VEGF; assay: Biacore SPR, chimera immobilised; footnote: the kd is very low and difficult to measure
Experimental: as §1, §2

T6 sequence (P09038 143-288 limits assumed): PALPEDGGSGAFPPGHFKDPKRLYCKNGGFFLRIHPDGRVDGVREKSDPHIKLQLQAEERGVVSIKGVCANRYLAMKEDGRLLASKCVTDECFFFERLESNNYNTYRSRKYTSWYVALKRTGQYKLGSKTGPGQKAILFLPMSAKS
T1 sequence (P05019 49-118 limits assumed): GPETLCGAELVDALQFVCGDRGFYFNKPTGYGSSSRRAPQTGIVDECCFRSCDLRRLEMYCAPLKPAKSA
T4 sequence (P15692 other isoform, or with tags, fused parts or gaps limits assumed): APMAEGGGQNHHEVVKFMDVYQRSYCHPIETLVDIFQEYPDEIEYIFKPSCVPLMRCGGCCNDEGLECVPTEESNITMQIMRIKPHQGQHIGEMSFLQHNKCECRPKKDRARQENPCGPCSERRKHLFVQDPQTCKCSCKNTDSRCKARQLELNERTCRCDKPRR
Chain of TGF-α (P01135 40-89 limits assumed): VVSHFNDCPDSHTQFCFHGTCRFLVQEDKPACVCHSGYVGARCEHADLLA
T5 sequence (P14210 32-728 limits assumed): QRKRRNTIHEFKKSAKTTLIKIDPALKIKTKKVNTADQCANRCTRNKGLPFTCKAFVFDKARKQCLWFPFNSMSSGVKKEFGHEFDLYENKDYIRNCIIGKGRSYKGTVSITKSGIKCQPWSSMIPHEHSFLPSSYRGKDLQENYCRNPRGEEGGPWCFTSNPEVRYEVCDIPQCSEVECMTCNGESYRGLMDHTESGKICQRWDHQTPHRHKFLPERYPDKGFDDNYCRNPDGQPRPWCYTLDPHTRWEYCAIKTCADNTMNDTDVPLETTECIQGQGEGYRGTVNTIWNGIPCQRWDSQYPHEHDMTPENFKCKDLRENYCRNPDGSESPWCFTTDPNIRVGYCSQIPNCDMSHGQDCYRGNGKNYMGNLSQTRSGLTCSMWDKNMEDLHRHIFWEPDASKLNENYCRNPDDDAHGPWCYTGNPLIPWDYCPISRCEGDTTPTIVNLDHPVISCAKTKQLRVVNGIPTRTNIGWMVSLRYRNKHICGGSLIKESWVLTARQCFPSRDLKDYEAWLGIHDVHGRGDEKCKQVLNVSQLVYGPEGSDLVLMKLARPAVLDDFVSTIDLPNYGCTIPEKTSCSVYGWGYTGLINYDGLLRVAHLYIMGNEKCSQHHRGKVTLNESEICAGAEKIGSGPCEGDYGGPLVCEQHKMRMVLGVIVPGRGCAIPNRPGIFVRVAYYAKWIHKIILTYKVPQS
Chain of IGF-2 (P01344 25-91 limits assumed): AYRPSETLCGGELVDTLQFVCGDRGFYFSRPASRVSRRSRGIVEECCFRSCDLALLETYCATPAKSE
Chain of mIGF-2 (P09535 25-91 limits assumed): as the sequence (P01344 25-91 limits assumed) above, with R3G, S5G, G22S, A32S, V35A, S36N counted along it
Chain of mIGF-1 (P05017 49-118 limits assumed): as the sequence (P05019 49-118 limits assumed) above, with D20P, S35I, A67T, S69A counted along it

Kd (IGF-1 [1]): 0.575 nM
Kd (IGF-1 [2]): 0.161 nM
Kd (IGF-2): 0.174 nM
Kd (nrgbx [3]): 5.98 nM
Kd (VEGF-B): 3 nM
binding result (VEGF [4]): no binding
binding result (TGF-α): no binding
Kd (mIGF-1): 0.21 nM
Kd (mIGF-2): 0.14 nM
Kd (HGF): 0.608 nM
Kd (bFGF [5]): 13.3 nM
Kd (bFGF [6]): 13 nM
IGF-1 binding remaining over controls (IGF-1 [7]): 100%
IGF-1 binding remaining over controls (IGF-1 [8]): 100%
IGF-1 binding remaining over controls (IGF-1 [9]): 101%
IGF-1 binding remaining over controls (IGF-1 [10]): 99%
IGF-1 binding remaining over controls (IGF-1 [11]): 51%
IGF-1 binding remaining over controls (IGF-1 [12]): 54%
B1: IGFBP3-Fc-1 (Fc fusion)
chain: GASSAGLGPVVRCEPCDARALAQCAPPPAVCAELVREPGCGCCLTCALSEGQPCGIYTERCGSGLRCQPSPDEARPLQALLDGRGLCVNASAVSKGHAKDSQRYKVDYESQSTDTQNFSSESKRETEYGPCRREMEDTLNHLKFLNVLSPRGVHIPNCDKKGFYKKKQCRPSKGRKRGFCWCVDKYGQPLPGYTTKGKEDVHCYSMQSKVECPPCPAPPVAGPSVFLFPPKPKDQLMISRTPEVTCVVVDVSHEDPEVKFNWYVDGVEVHNAKTKPREEQYNSTYRVVSVLTVLHQDWLNGKEYKCKVSNKGLPSSIEKTISKAKGQPREPQVYTLPPSREEMTKNQVSLTCLVKGFYPSDIAVEWESNGQPENNYKTTPPVLDSDGSFFLYSKLTVDKSRWQQGNVFSCSVMHEGLHNHYTQKSLSLSPGK
notes: IGFBP3 with IGFBP3 linker deletion 1 (55 amino acids deleted from the linker region), fused to Fc; dimeric; also called h3t33fc; his3t33fc

IC50 in inhibiting neuregulin-induced proliferation (nrgbx [13]): 47 nM
Kd (IGF-1 [14]): 0.4 nM
Kd (IGF-1 [2]): 0.0245 nM
Kd (IGF-2): 0.0389 nM
Kd (nrgbx [3]): 4.88 nM
Kd (VEGF-B): 0.5 nM
Kd (PIGF): 0.999 nM
Kd (TGF-α): 9250 nM
Kd (mIGF-1): 0.137 nM
Kd (mIGF-2): 0.0513 nM
Kd (bFGF [15]): 1.92 nM
Kd (HGF): 0.0218 nM
Kd (IGF-1 [16]): 0.2 nM
Kd (VEGF [17]): 0.0038 nM
IGF-1 binding remaining over controls (IGF-1 [8]): 100%
IGF-1 binding remaining over controls (IGF-1 [10]): 94%
IGF-1 binding remaining over controls (IGF-1 [12]): 77%
B2: IGFBP3-Fc-VEGF-1 (Fc fusion)
chain: GASSAGLGPVVRCEPCDARALAQCAPPPAVCAELVREPGCGCCLTCALSEGQPCGIYTERCGSGLRCQPSPDEARPLQALLDGRGLCVNASAVSKGHAKDSQRYKVDYESQSTDTQNFSSESKRETEYGPCRREMEDTLNHLKFLNVLSPRGVHIPNCDKKGFYKKKQCRPSKGRKRGFCWCVDKYGQPLPGYTTKGKEDVHCYSMQSKAPPAPGNASESEEDRSAGIYIFISDTGRPFVEMYSEIPEIIHMTEGRELVIPCRVTSPNITVTLKKFPLDTLIPDGKRIIWDSRKGFIISNATYKEIGLLTCEATVNGHLYKTNYLTHRQGYRIYDVVLSPSHGIELSVGEKLVLNCTARTELNVGIDFNWEYPSSKHQHKKLVNRDLKTQSGSEMKKFLSTLTIDGVTRSDQGLYTCAASSGLMTKKNSTFVRVHEKVECPPCPAPPVAGPSVFLFPPKPKDQLMISRTPEVTCVVVDVSHEDPEVKFNWYVDGVEVHNAKTKPREEQYNSTYRVVSVLTVLHQDWLNGKEYKCKVSNKGLPSSIEKTISKAKGQPREPQVYTLPPSREEMTKNQVSLTCLVKGFYPSDIAVEWESNGQPENNYKTTPPVLDSDGSFFLYSKLTVDKSRWQQGNVFSCSVMHEGLHNHYTQKSLSLSPGK
notes: IGFBP3 with linker deletion 1 - gly 3 linker - v1v2 (VEGFR1 domain 2, VEGFR2 domain 3) - Fc; dimeric; also called chimera A; chimeraA
